T1: IFN-αF (human, UniProt P01568 24-189)
T1 construct: Recombinant, HEK293; also called IFN-α21
T1 chain: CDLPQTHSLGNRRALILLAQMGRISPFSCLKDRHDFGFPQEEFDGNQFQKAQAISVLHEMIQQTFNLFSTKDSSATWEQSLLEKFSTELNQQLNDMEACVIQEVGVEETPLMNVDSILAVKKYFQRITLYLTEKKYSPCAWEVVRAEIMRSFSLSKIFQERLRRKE


Experiments:
Assay in all cases: ProteOn SPR, cell supernatant;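 note: each binding measurement used just a single antigen concentration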
IFN-αWA = target: T2, IFN-αWA (human, UniProt P05015 24-189)
T2 construct: Recombinant, HEK293; also called IFN-α16

IFN-αC = target: T3, IFN-αC (human, UniProt P01566 24-189)
T3 construct: Recombinant, HEK293; also called IFN-α10

IFN-αG = target: T4, IFN-αG (human, UniProt P01569 24-189)
T4 construct: Recombinant, HEK293; also called IFN-α5

IFN-αF = target: T1, IFN-αF
IFN-α4a = target: T5, IFN-α4a (human, UniProt P05014 24-189)
T5 construct: Recombinant, HEK293; also called IFN-αM1

human IFN-ω = target: T6, human IFN-ω (human, UniProt P05000 24-195)
T6 construct: Recombinant, HEK293; also called interferon omega

IFN-αJ1 = target: T7, IFN-αJ1 (human, UniProt P01567 24-189)
T7 construct: Recombinant, HEK293; also called IFN-α7

| Binder | Kd (IFN-αWA) [pM] | Kd (IFN-αC) [pM] | Kd (IFN-αG) [pM] | Kd (IFN-αF) [pM] | Kd (IFN-α4a) [pM] | Kd (human IFN-ω) [pM] | Kd (IFN-αJ1) [pM] |
| --- | --- | --- | --- | --- | --- | --- | --- |
| IFWM3394 (antibody, IgG1, V domains shown, mAb; IgG1/kappa said of the parent and of selected mAbs; also called IFWB3129) VH: EVQLVQSGAEVKKPGESLKISCKGSGYSFTSYWIGWVRQMPGKGLEWMGIIDPSDSDTRYSPSFQGQVTISADKSISTAYLQWSSLKASDTAMYYCARHPGLAWAPDFDYWGQGTLVTVSS VL: DIQMTQSPSSLSASVGDRVTITCRASQSINEFLNWYQQKPGKAPKLLIYFASSLQSGVPSRFSGSGSGTDFTLTISSLQPEDFATYYCQQSYSTPLTFGQGTKVEIK | 49 | 63 | 91 | 63 | 105 | 45 | 77 |
| IFWM3396 (antibody, IgG1, V domains shown, mAb; IgG1/kappa said of the parent and of selected mAbs; also called IFWB3131) VH: EVQLVQSGAEVKKPGESLKISCKGSGYSFTSYWIGWVRQMPGKGLEWMGIIDPSDSDTRYSPSFQGQVTISADKSISTAYLQWSSLKASDTAMYYCARHPGLAWAPDFDYWGQGTLVTVSS VL: DIQMTQSPSSLSASVGDRVTITCRASQSISEYLNWYQQKPGKAPKLLIYFASSLQSGVPSRFSGSGSGTDFTLTISSLQPEDFATYYCQQSHSLPITFGQGTKVEIK | 68 | 5 | 61 | 7 | 79 | 11 | 37 |
| IFWM3393 (antibody, IgG1, V domains shown, mAb; IgG1/kappa said of the parent and of selected mAbs; also called IFWB3128) VH: EVQLVQSGAEVKKPGESLKISCKGSGYSFTSYWIGWVRQMPGKGLEWMGIIDPSDSDTRYSPSFQGQVTISADKSISTAYLQWSSLKASDTAMYYCARHPGLAWAPDFDYWGQGTLVTVSS VL: DIQMTQSPSSLSASVGDRVTITCRASQSITSSLNWYQQKPGKAPKLLIYFASSLQSGVPSRFSGSGSGTDFTLTISSLQPEDFATYYCQQSFDLPLTFGQGTKVEIK | 78 | 49 | 64 | 41 | 166 | 57 | 96 |
| IFWM3397 (antibody, IgG1, V domains shown, mAb; IgG1/kappa said of the parent and of selected mAbs; also called IFWB3132) VH: EVQLVQSGAEVKKPGESLKISCKGSGYSFTSYWIGWVRQMPGKGLEWMGIIDPSDSDTRYSPSFQGQVTISADKSISTAYLQWSSLKASDTAMYYCARHPGLAWAPDFDYWGQGTLVTVSS VL: DIQMTQSPSSLSASVGDRVTITCRASQSITGFLNWYQQKPGKAPKLLIYAASSLQSGVPSRFSGSGSGTDFTLTISSLQPEDFATYYCQQSHDFPLTFGQGTKVEIK | 62 | 27 | 43 | 28 | 119 | 25 | 78 |

Further binders by falling Kd (IFN-αWA), results first:

| Kd (IFN-αWA) [pM] | Kd (IFN-αC) [pM] | Kd (IFN-αG) [pM] | Kd (IFN-αF) [pM] | Kd (IFN-α4a) [pM] | Kd (human IFN-ω) [pM] | Kd (IFN-αJ1) [pM] | Binder |
| --- | --- | --- | --- | --- | --- | --- | --- |
| 63 | 116 | 63 | 102 | 279 | 19 | 181 | IFWM3395 (antibody, IgG1, V domains shown, mAb; IgG1/kappa said of the parent and of selected mAbs; also called IFWB3130) VH: EVQLVQSGAEVKKPGESLKISCKGSGYSFTSYWIGWVRQMPGKGLEWMGIIDPSDSDTRYSPSFQGQVTISADKSISTAYLQWSSLKASDTAMYYCARHPGLAWAPDFDYWGQGTLVTVSS VL: DIQMTQSPSSLSASVGDRVTITCRASQSISKFLNWYQQKPGKAPKLLIYFASSLQSGVPSRFSGSGSGTDFTLTISSLQPEDFATYYCQQSYDFPITFGQGTKVEIK |
| 25 | 16 | 19 | 14 | 58 | 23 | 21 | IFWM3392 (antibody, IgG1, V domains shown, mAb; IgG1/kappa said of the parent and of selected mAbs; also called IFWB3127) VH: EVQLVQSGAEVKKPGESLKISCKGSGYSFTSYWIGWVRQMPGKGLEWMGIIDPSDSDTRYSPSFQGQVTISADKSISTAYLQWSSLKASDTAMYYCARHPGLAWAPDFDYWGQGTLVTVSS VL: DIQMTQSPSSLSASVGDRVTITCRASQSIDRALNWYQQKPGKAPKLLIYFASSLQSGVPSRFSGSGSGTDFTLTISSLQPEDFATYYCQQSFDFPLTFGQGTKVEIK |
